{"source": "patent US7888090B2", "about": "“Mutants of O6-alkylguanine-DNA alkyltransferase” (Ecole Polytechnique Federale de Lausanne, priority 2004, dated 2011)", "molecules": {"B1": {"name": "AGTM: AGT mutant Cys62Ala, Gln115Ser, Gln116His, Lys125Ala, Ala127Thr, Arg128Ala, Gly131Lys, Gly132Thr, Met134Leu, Arg135Ser, Cys150Asn, Ser151Ile, Ser152Asn, Asn157Gly, Ser159Glu, truncated after … (protein, UniProt P16455 1-207, looked up, variant C62A Q115S Q116H K125A A127T R128A G131K G132T M134L R135S C150N S151I S152N N157G S159E del183-207)", "Methylated-DNA--protein-cystei …": "MDKDCEMKRTTLDSPLGKLELSGCEQGLHEIKLLGKGTSAADAVEVPAPAAVLGGPEPLMQATAWLNAYFHQPEAIEEFPVPALHHPVFQQESFTRQVLWKLLKVVKFGEVISYSHLAALAGNPAATAAVKTALSGNPVPILIPCHRVVNINGAVGGYEGGLAVKEWLLAHEGHRLGKPGLG", "modifications": "His tag"}}, "key": {"[1]": {"assay": "Reactivity towards N^9-modified O^6-benzylguanine derivatives (preblocking, BG-Cy3 assay)", "type": "biochemical", "settings": "100 µM BG, 15 min", "procedure": "FIG. 3: Reactivity of AGT mutants with N^9-modified BG derivatives. 10 µM AGTM (grey bars) or PGEG-hAGT (black bars) were preblocked with 100 µM N^9-modified BG derivatives (see list below), and subsequently labeled with 20 µM BG-Cy3. After 1 h reaction time, fluorescence intensity (FI) indicated in arbitrary units [a.u.] at 595 nm is measured. The black bold line is set at the reading for condition 1 corresponding to background fluorescence of the fluorophore not attached to protein. Values above this line indicate slow or incomplete reaction with N^9-modified BG-derivative. • 1 Fluorescence of BG-Cy3 without protein; background fluorescence. • 2 Reaction with BG-Cy3; no preblocking, positive control. • 3 Reaction with BG-Cy3, preblocked with 100 µM BG. • 4 Reaction with BG-Cy3, preblocked with 100 µM N^9-isobutyl-O^6-benzylguanine. • 5 Reaction with BG-Cy3, preblocked with 100 µM N^9-propyl-O^6-benzylguanine. • 6 Reaction with BG-Cy3, preblocked with 100 µM N^9-cyanomethyl-O^6-benzylguanine.\nReactivity of AGT towards N^9-modified O^6-benzylguanine derivatives: The experiment is based on the BG-Cy3 assay. Upon reaction of AGT with BG-Cy3, an increase of fluorescence emission intensity of Cy3 by a factor 2-3 can be observed. […]"}, "[2]": {"assay": "Expression yield of soluble GST-AGT fusion protein", "design": "species or system E. coli", "settings": "comparator not stated", "in_short": "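GST-AGT fusions expressed in E. coli BL21, induced with 0.5 mM IPTG for 3.5 h at 24 °C, and purified from the soluble fraction on glutathione sepharose. Soluble and insoluble fractions compared by SDS-PAGE. Yield taken from A280 relative to wild-type hAGT purified the same way.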"}, "salmon sperm DNA": {"tested_on": "salmon sperm DNA", "assay": "DNA binding as inhibition by DNA of the reaction with BG-Cy3", "settings": "salmon sperm DNA 25 µg/ml", "procedure": "The interaction with DNA is e.g. quantified by assessing the amount of copurified DNA from E. coli extracts under conditions of low salt and absence of DNase. This is compared between parallel purifications of fusion proteins (e.g. fusions to GST) of wild type (human) and mutant AGT by spectroscopic methods (ratio of absorbance at 260 and 280 nm). Alternatively the interaction of AGT with DNA is measured as the inhibition of AGT reactivity with BG-Cy3 (O^6-(4-aminomethyl-benzyl)-guanine coupled to Cy3) as substrate in the presence of DNA. This approach takes advantage of a marked increase of fluorescence of the Cy3 fluorophore upon reaction of BG-Cy3 with AGT. The reaction kinetics of AGT with a Cy3-labeled benzylguanine derivative is followed by fluorescence intensity measurements over several hours at various concentrations of salmon sperm DNA.\nDNA binding: DNA binding is measured as inhibition by DNA of the reaction of AGT mutants with BG derivatives. The reaction rate of AGT mutants in a reaction mixture containing salmon sperm DNA (25 µg/ml) instead of oligonucleotide is measured with the BG-Cy3 assay. The reaction rate is determined by fitting the obtained data to a monoexponential increase to maximum."}}}
{"molecule": "B1", "values": [{"measurement": "AGT remaining active after preblocking with BG", "setting": "[1]", "value": 5, "unit": "%"}, {"measurement": "expression yield in E. coli", "setting": "[2]", "value": "increased expression yield"}, {"measurement": "reduction of reaction rate to BG-Cy3 in presence of DNA", "setting": "salmon sperm DNA", "value": "unchanged"}]}
